Measurements as given in the supplement of paper PMC9732359.
± gives the uncertainty stated by the source.

Assay: protein stability index of a GFP-peptide fusion (yeast GPS) (PSI 1-4); higher = more stable; sorted into four equal gates, so the index is relative within each strain
Method in brief: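 Mid-log yeast cultures in leucine-free medium, carrying a pooled plasmid library, were sorted into four equal gates by their GFP/Cherry fluorescence ratio. Each plasmid expressed Cherry along with GFP fused upstream of a tiled 17-residue yeast protein peptide. Plasmids recovered from each gate were PCR-amplified and Illumina-sequenced, with reads assigned to strains by barcodes. The protein stability index was obtained by summing each gate's read frequency weighted by its gate number.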

| Sequence | protein stability index (doa10∆) | protein stability index (pdr5∆) | protein stability index (san1∆) | protein stability index (ubr1∆) |
| --- | --- | --- | --- | --- |
| DTTFSDFKEVEDFLHFI [SRB4] | 2.83 ± 0.06 | 2.09 ± 0.05 | 2.23 ± 0.064 | 2.56 ± 0.048 |
| PSLNKTINGKVNGRTKS [GAL11] | 3.06 ± 0.14 | 3.07 ± 0.13 | 2.98 ± 0.14 | 3.11 ± 0.14 |
| RNFLETVELQVGLKNYD [RPL1A] | 3.01 ± 0.087 | 3.08 ± 0.079 | 3.1 ± 0.091 | 3.15 ± 0.074 |
| YGAYNTQIANAGASPMV [PRE4] | 2.16 ± 0.1 | 2.3 ± 0.096 | 1.92 ± 0.097 | 1.61 ± 0.063 |
| PAHTVIIKGTDVYSPEK [BRR2] | 3.02 ± 0.055 | 3.19 ± 0.077 | 2.54 ± 0.072 | 2.68 ± 0.055 |
| ALKKSRSKGKQNRPYNH [RPC17] | 3.04 ± 0.093 | 2.46 ± 0.1 | 2.5 ± 0.1 | 2.42 ± 0.091 |
| AFKHKRALVEHIIQAKA [RPL19A] | 3.11 ± 0.13 | 3.37 ± 0.1 | 3.19 ± 0.12 | 3.19 ± 0.072 |
| DWIRFVSTKTNEYRLAF [RPL22A] | 2.03 ± 0.039 | 2.17 ± 0.045 | 2.75 ± 0.064 | 2.62 ± 0.042 |
| VEYKLTFVPTNSDKPRD [DIS3] | 1.21 ± 0.14 | 1.31 ± 0.094 | 1.19 ± 0.24 | 1.05 ± 0.11 |
| VFLLLQAYFSRLELPVD [BRR2] | 1.59 ± 0.05 | 1.31 ± 0.043 | 1.26 ± 0.089 | 1.48 ± 0.041 |
| DVCKTRFNHLVTRLFFI [YML031W/NDC1] | 1.79 ± 0.046 | 1.53 ± 0.039 | 1.52 ± 0.072 | 1.77 ± 0.034 |
| DVVAKLEAKRKVSSAEY [RPL16A] | 1.69 ± 0.11 | 1.7 ± 0.071 | – | – |
| EITVVKPDSDIVALSSE [PRE6] | 3.1 ± 0.058 | 3.23 ± 0.051 | 3.24 ± 0.04 | 3.3 ± 0.049 |
| MSIGTGSFKVVKGTNIS [RPO31] | – | 2.19 ± 0.15 | – | – |
| LVAAFIASLERELILAK [YCG1] | 1.79 ± 0.065 | 2.21 ± 0.092 | 1.93 ± 0.081 | 1.48 ± 0.053 |
| IVPVISTIENVLFYIGR [COB] | 1.85 ± 0.059 | 1.68 ± 0.042 | 2.4 ± 0.058 | 2.34 ± 0.056 |
| VIFLSSLLTLVGSVTYQ [YJL039C/NUP192] | 1.39 ± 0.14 | 1.21 ± 0.14 | 1.14 ± 0.28 | 1.2 ± 0.13 |
| VIYRGPEPSHIDQVMMS [RET1] | 3.01 ± 0.085 | 3.23 ± 0.13 | 3.19 ± 0.067 | 2.77 ± 0.088 |
| IDDNYIVVVIEIITSLS [SRB8] | 2.6 ± 0.11 | 2.87 ± 0.081 | 2.16 ± 0.082 | 2.22 ± 0.086 |
| QDGGVTPYSNESGLVNA [RPO21] | 2.68 ± 0.055 | 2.69 ± 0.065 | 2.63 ± 0.058 | 2.6 ± 0.068 |
| NIMVTIDGCVKIGDLGL [SSN3] | 3.27 ± 0.16 | 3.12 ± 0.14 | 3.5 ± 0.069 | 3.43 ± 0.052 |
| QGGNNELGTAVGKLFRV [RPL30] | 2.5 ± 0.12 | 2.83 ± 0.093 | 2.45 ± 0.06 | 2.84 ± 0.076 |
| LENKADPLVSLMMVEKV [RPT6] | 2.12 ± 0.095 | 2 ± 0.069 | 2.35 ± 0.067 | 2.2 ± 0.099 |
| SSAAILGLGIAFAGSKN [RPN1] | 1.35 ± 0.081 | 1.94 ± 0.097 | 2.03 ± 0.29 | 1.34 ± 0.092 |
| RTQAGDIVSIDIEEPQL [MTW1] | 2.99 ± 0.12 | 3.26 ± 0.1 | 3.36 ± 0.061 | 3.24 ± 0.081 |
| ETISNVAKTAPNSNKTH [SNF2] | 2.96 ± 0.055 | 3 ± 0.061 | 2.96 ± 0.035 | 3.07 ± 0.045 |
| RNKRAVQLPILKIIYTG [YJL039C/NUP192] | 1.6 ± 0.056 | 1.87 ± 0.048 | 1.97 ± 0.069 | 2.02 ± 0.067 |

| Sequence | protein stability index (doa10∆) | protein stability index (pdr5∆) | protein stability index (san1∆) | protein stability index (ubr1∆) |
| --- | --- | --- | --- | --- |
| VPPILIILPLDNATLTE [SSN2] | 2.97 ± 0.1 | 2.71 ± 0.11 | 2.58 ± 0.16 | 2.51 ± 0.087 |
| GVNELAPIPKGRVKYTK [POP1] | 3.05 ± 0.08 | 2.87 ± 0.06 | 3.17 ± 0.066 | 2.67 ± 0.069 |
| GSAADTQAIADIVQYHL [PRE3] | – | 3.26 ± 0.19 | 2.88 ± 0.17 | 2.99 ± 0.13 |
| MSQAVNAKKRVFKTHSY [RPS15] | 2.57 ± 0.055 | 1.72 ± 0.035 | 2.19 ± 0.11 | 2.63 ± 0.061 |
| EEISFSLSEGCDILVAT [PRP28] | 2.62 ± 0.1 | 2.69 ± 0.06 | 2.72 ± 0.071 | 2.96 ± 0.058 |
| KRPYESSRLDAELKLAG [RPS9A] | 3.24 ± 0.088 | 3.05 ± 0.065 | 2.81 ± 0.072 | 2.96 ± 0.14 |
| NDLIVNYEDLATTQAAS [BRN1] | 2.98 ± 0.07 | 3.09 ± 0.087 | 3.34 ± 0.046 | 3.25 ± 0.061 |
| VNEMNDQLAQELKDLET [NNF1] | 2.9 ± 0.23 | – | 3.27 ± 0.12 | – |
| LLLAAQIVSYCSNNKNS [SSN2] | 1.17 ± 0.045 | 1.42 ± 0.048 | 1.23 ± 0.083 | 1.34 ± 0.045 |
| EISTSKKNNLEFGTYGK [RPN14] | 2.6 ± 0.08 | 2.13 ± 0.061 | 2.17 ± 0.082 | 2.04 ± 0.059 |
| EKLKVNMEKEKDRIIDE [YIL149C/MLP2] | 3.37 ± 0.23 | 3.05 ± 0.2 | 3.39 ± 0.1 | 2.75 ± 0.14 |
| DDLPYYVNALADVLYKT [QCR2] | 2.78 ± 0.061 | 2.86 ± 0.052 | 2.63 ± 0.045 | 2.63 ± 0.042 |
| LLLNYLELIGVLSINPD [MED7] | 1.6 ± 0.067 | 1.78 ± 0.063 | 1.31 ± 0.14 | 1.49 ± 0.058 |
| YEADQRKLFPNWIKPSD [PRP8] | 2.99 ± 0.092 | 2.86 ± 0.085 | 2.67 ± 0.11 | 2.96 ± 0.049 |
| VTHDCYRVTLESILQMN [RPC34] | 3.29 ± 0.28 | 2.39 ± 0.27 | 2.66 ± 0.16 | – |
| ISIDSWPTTHKYPLGHF [DIS3] | 2.38 ± 0.077 | 2.74 ± 0.11 | 3.04 ± 0.082 | 2.81 ± 0.072 |
| DPETTATQKESLEMVPK [RGR1] | 3.12 ± 0.063 | 3.07 ± 0.054 | 2.94 ± 0.048 | 3.11 ± 0.046 |
| KLKRNSDRREHDEKLSD [LIN1] | 3.51 ± 0.23 | 2.49 ± 0.16 | 3.22 ± 0.11 | 2.96 ± 0.13 |
| RGAHVEKTMVKKNLGRL [PRP8] | – | 3.29 ± 0.16 | 3.14 ± 0.18 | – |
| YFLKVTFLKYFGWLLSD [IRR1] | 1.75 ± 0.074 | 1.59 ± 0.054 | 1.88 ± 0.09 | 1.8 ± 0.062 |
| GKMIELISGKAGVLNGT [RET1] | 2.62 ± 0.079 | 2.98 ± 0.087 | 2.52 ± 0.24 | 2.6 ± 0.11 |
| KESDDPSIPLVIIRRLK [POP1] | 3.12 ± 0.1 | 2.07 ± 0.064 | 3.06 ± 0.068 | 3.05 ± 0.093 |
| SPVQDWNLLRSLYIFFT [YML103C/NUP188] | 2.38 ± 0.079 | 1.71 ± 0.053 | 2.25 ± 0.069 | 1.95 ± 0.042 |
| GNIFSNIGTPSFNMAQI [SNF5] | 2.58 ± 0.099 | 2.66 ± 0.093 | 3.05 ± 0.069 | 2.64 ± 0.054 |
| ICDPVHKHREARGLTAT [RPL15A] | 3.49 ± 0.12 | 2.81 ± 0.14 | 2.93 ± 0.13 | 3.26 ± 0.099 |
| NNGSKDHGDGILLIDSE [RPN9] | 3.37 ± 0.16 | 3.19 ± 0.17 | 3.38 ± 0.063 | 3.41 ± 0.21 |
| MKYAVSKTSENKVSNTV [SIR2] | 2.99 ± 0.13 | 3.16 ± 0.062 | 3.15 ± 0.091 | 2.98 ± 0.052 |
